We go through one molecule from article PMC5867903.

This experiment deals with mouse serum proteins (serum protein binding assay) (mouse). Nature of the experiment: ultrafiltration of serum.

B1: 800-G-Abz4-t-BBN (peptide)
peptide: GQWAVGHLM
modifications: IRDye800 (800CW) on the N-terminus; 4-aminobenzoyl (Abz4) between the linker G and Q; C-terminal amide
On to B1, for which the percent serum protein bound is above 90%.
